Reference: patent US20180291082A1
Like-named read-outs stand apart in the source and are kept apart here. Values belong to the binder of their own block, whether it stands above or below them.

Assays:
Assay in all cases: UV-ligand exchange, anti-b2m ELISA; exchange yield grade (+ >10%, ++ >20%, +++ >50, ++++ >75%)
HLA-A*01:01 (human) = settings: remark: other sources report otherwise
HLA-B*44:02 (human) = biological target: HLA-B*44:02 (human)
HLA-A*03:01 (human) = biological target: HLA-A*03:01 (human)

peptide exchange yield (HLA-A*01:01 (human)): 50 to 75%
Binder: ITEKNSGLY

peptide exchange yield (HLA-B*44:02 (human); remark: other sources report otherwise): 20 to 50%
Binder: QQATPGPAY

peptide exchange yield (HLA-A*03:01 (human)): 20 to 50%
Binder: KITDFGLAK (modifications not checked)

peptide exchange yield (HLA-B*44:02 (human)): 50 to 75%
Binder: AEGGKVPIKW (modifications not checked)
